According to patent US20140348819A1, “Methods of Treating Cancer” (Dana-Farber Cancer Institute, Inc., priority 2011, published 2014):

System: six V600E BRAF melanoma cell lines
Test: Screening of recombinant RTK ligands for ability to confer resistance to BRAFi (PLX4720) or MEKi (PD184352) (Table 4)
Type: cell-based, human
Set-up: ability of recombinant RTK ligand to confer resistance / ability of recombinant RTK ligand to confer resistance (screening value): scale not given here
Procedure, shortened: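 Resistance to BRAFi (PLX4720) or MEKi (PD184352) was tested in six V600E BRAF melanoma lines given one of 22 recombinant RTK ligands. For a subset of RTKs, activation was checked by high-throughput tyrosine kinase phosphorylation profiling and western blot.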

B1: Pleiotrophin (protein, UniProt P21246 33-168, looked up)
Pleiotrophin: GKKEKPEKKVKKSDCGEWQWSVCVPTSGDCGLGTREGTRTGAECKQTMKTQRCKIPCNWKKQFGAECKYQFQAWGECDLNTALKTRTGSLKRALHNAECQKTVTISKPCGKLTKPKPQAESKKKKKEGKKQEKMLD
- ability of recombinant RTK ligand to confer resistance (A2058, PD184352 - 1 uM, ligand 3.9 ng/ml): 1.06
- ability of recombinant RTK ligand to confer resistance (A2058, PD184352 - 1 uM, ligand 15.625 ng/ml): 1.07
- ability of recombinant RTK ligand to confer resistance (A2058, PD184352 - 1 uM, ligand 62.5 ng/ml): 1.03
- ability of recombinant RTK ligand to confer resistance (A2058, PD184352 - 1 uM, ligand 250 ng/ml): 1.00
- ability of recombinant RTK ligand to confer resistance (A2058, PD184352 - 1 uM, ligand 1000 ng/ml): 0.87
- ability of recombinant RTK ligand to confer resistance (A2058, PLX4720 - 2 uM, ligand 3.9 ng/ml): 1.03
- ability of recombinant RTK ligand to confer resistance (A2058, PLX4720 - 2 uM, ligand 15.625 ng/ml): 1.04
- ability of recombinant RTK ligand to confer resistance (A2058, PLX4720 - 2 uM, ligand 62.5 ng/ml): 1.04
- ability of recombinant RTK ligand to confer resistance (A2058, PLX4720 - 2 uM, ligand 250 ng/ml): 1.02
- ability of recombinant RTK ligand to confer resistance (A2058, PLX4720 - 2 uM, ligand 1000 ng/ml): 0.93
- ability of recombinant RTK ligand to confer resistance (C32, PD184352 - 1 uM, ligand 3.9 ng/ml): 1.07
- ability of recombinant RTK ligand to confer resistance (C32, PD184352 - 1 uM, ligand 15.625 ng/ml): 1.08
- ability of recombinant RTK ligand to confer resistance (C32, PD184352 - 1 uM, ligand 62.5 ng/ml): 1.07
- ability of recombinant RTK ligand to confer resistance (C32, PD184352 - 1 uM, ligand 250 ng/ml): 1.12
- ability of recombinant RTK ligand to confer resistance (C32, PD184352 - 1 uM, ligand 1000 ng/ml): 0.99
- ability of recombinant RTK ligand to confer resistance (C32, PLX4720 - 2 uM, ligand 3.9 ng/ml): 1.01
- ability of recombinant RTK ligand to confer resistance (C32, PLX4720 - 2 uM, ligand 15.625 ng/ml): 1.04
- ability of recombinant RTK ligand to confer resistance (C32, PLX4720 - 2 uM, ligand 62.5 ng/ml): 0.95
- ability of recombinant RTK ligand to confer resistance (C32, PLX4720 - 2 uM, ligand 250 ng/ml): 0.96
- ability of recombinant RTK ligand to confer resistance (C32, PLX4720 - 2 uM, ligand 1000 ng/ml): 0.87
- ability of recombinant RTK ligand to confer resistance (Colo 829, PD184352 - 1 uM, ligand 3.9 ng/ml): 1.05
- ability of recombinant RTK ligand to confer resistance (Colo 829, PD184352 - 1 uM, ligand 15.625 ng/ml): 0.99
- ability of recombinant RTK ligand to confer resistance (Colo 829, PD184352 - 1 uM, ligand 62.5 ng/ml): 0.99
- ability of recombinant RTK ligand to confer resistance (Colo 829, PD184352 - 1 uM, ligand 250 ng/ml): 0.96
- ability of recombinant RTK ligand to confer resistance (Colo 829, PD184352 - 1 uM, ligand 1000 ng/ml): 0.95
- ability of recombinant RTK ligand to confer resistance (Colo 829, PLX4720 - 2 uM, ligand 3.9 ng/ml): 1.03
- ability of recombinant RTK ligand to confer resistance (Colo 829, PLX4720 - 2 uM, ligand 15.625 ng/ml): 0.96
- ability of recombinant RTK ligand to confer resistance (Colo 829, PLX4720 - 2 uM, ligand 62.5 ng/ml): 0.97
- ability of recombinant RTK ligand to confer resistance (Colo 829, PLX4720 - 2 uM, ligand 250 ng/ml): 0.36
- ability of recombinant RTK ligand to confer resistance (Colo 829, PLX4720 - 2 uM, ligand 1000 ng/ml): 0.98
- ability of recombinant RTK ligand to confer resistance (G-361, PD184352 - 1 uM, ligand 3.9 ng/ml): 0.96
- ability of recombinant RTK ligand to confer resistance (G-361, PD184352 - 1 uM, ligand 15.625 ng/ml): 0.96
- ability of recombinant RTK ligand to confer resistance (G-361, PD184352 - 1 uM, ligand 62.5 ng/ml): 0.97
- ability of recombinant RTK ligand to confer resistance (G-361, PD184352 - 1 uM, ligand 250 ng/ml): 0.92
- ability of recombinant RTK ligand to confer resistance (G-361, PD184352 - 1 uM, ligand 1000 ng/ml): 0.92
- ability of recombinant RTK ligand to confer resistance (G-361, PLX4720 - 2 uM, ligand 3.9 ng/ml): 1.04
- ability of recombinant RTK ligand to confer resistance (G-361, PLX4720 - 2 uM, ligand 15.625 ng/ml): 0.97
- ability of recombinant RTK ligand to confer resistance (G-361, PLX4720 - 2 uM, ligand 62.5 ng/ml): 0.94
- ability of recombinant RTK ligand to confer resistance (G-361, PLX4720 - 2 uM, ligand 250 ng/ml): 0.94
- ability of recombinant RTK ligand to confer resistance (G-361, PLX4720 - 2 uM, ligand 1000 ng/ml): 1.00
- ability of recombinant RTK ligand to confer resistance (SK-MEL-5, PD184352 - 1 uM, ligand 3.9 ng/ml): 0.93
- ability of recombinant RTK ligand to confer resistance (SK-MEL-5, PD184352 - 1 uM, ligand 15.625 ng/ml): 1.00
- ability of recombinant RTK ligand to confer resistance (SK-MEL-5, PD184352 - 1 uM, ligand 62.5 ng/ml): 1.02
- ability of recombinant RTK ligand to confer resistance (SK-MEL-5, PD184352 - 1 uM, ligand 250 ng/ml): 1.08
- ability of recombinant RTK ligand to confer resistance (SK-MEL-5, PD184352 - 1 uM, ligand 1000 ng/ml): 1.11
- ability of recombinant RTK ligand to confer resistance (SK-MEL-5, PLX4720 - 2 uM, ligand 3.9 ng/ml): 0.92
- ability of recombinant RTK ligand to confer resistance (SK-MEL-5, PLX4720 - 2 uM, ligand 15.625 ng/ml): 0.89
- ability of recombinant RTK ligand to confer resistance (SK-MEL-5, PLX4720 - 2 uM, ligand 62.5 ng/ml): 0.95
- ability of recombinant RTK ligand to confer resistance (SK-MEL-5, PLX4720 - 2 uM, ligand 250 ng/ml): 1.07
- ability of recombinant RTK ligand to confer resistance (SK-MEL-5, PLX4720 - 2 uM, ligand 1000 ng/ml): 0.97
- ability of recombinant RTK ligand to confer resistance (SK-MEL-28, PD184352 - 1 uM, ligand 3.9 ng/ml): 1.11
- ability of recombinant RTK ligand to confer resistance (SK-MEL-28, PD184352 - 1 uM, ligand 15.625 ng/ml): 0.98
- ability of recombinant RTK ligand to confer resistance (SK-MEL-28, PD184352 - 1 uM, ligand 62.5 ng/ml): 0.93
- ability of recombinant RTK ligand to confer resistance (SK-MEL-28, PD184352 - 1 uM, ligand 250 ng/ml): 1.02
- ability of recombinant RTK ligand to confer resistance (SK-MEL-28, PD184352 - 1 uM, ligand 1000 ng/ml): 0.87
- ability of recombinant RTK ligand to confer resistance (SK-MEL-28, PLX4720 - 2 uM, ligand 3.9 ng/ml): 1.04
- ability of recombinant RTK ligand to confer resistance (SK-MEL-28, PLX4720 - 2 uM, ligand 15.625 ng/ml): 0.95
- ability of recombinant RTK ligand to confer resistance (SK-MEL-28, PLX4720 - 2 uM, ligand 62.5 ng/ml): 0.95
- ability of recombinant RTK ligand to confer resistance (SK-MEL-28, PLX4720 - 2 uM, ligand 250 ng/ml): 0.96
- ability of recombinant RTK ligand to confer resistance (SK-MEL-28, PLX4720 - 2 uM, ligand 1000 ng/ml): 0.89
